Measured values from patent US20210315238A1.
Like-named read-outs stand apart in the source and are kept apart here.

Experiments:
[1] = target: wheat gliadin (Sigma, Cat. No. G3375) (wheat); assay: cell-based or functional assay
26-mer peptide [2] = test system: 26-mer peptide
33-mer peptide [3] = test system: 33-mer peptide
26-mer peptide [4] = target: T1, 26-mer peptide
T1 chain: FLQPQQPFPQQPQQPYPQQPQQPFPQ

33-mer peptide [5] = target: T2, 33-mer peptide
T2 chain: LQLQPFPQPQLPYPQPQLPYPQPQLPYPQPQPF

Brewers Clarex (enzyme)
Residual Immunogenicity (%) of wheat gliadin, competitive ELISA after protease treatment [1]: 59.7%

Brewers Clarex
Residual 26-mer peptide (mg/mL) after 0.5 ppm protease, 10 min 40 C, HPLC (26-mer peptide [2]): 0.65 mg/mL
Residual 26-mer peptide (mg/mL) after 1 ppm protease, 10 min 40 C, HPLC (26-mer peptide [2]): 0.46 mg/mL
Residual 26-mer peptide (mg/mL) after 2 ppm protease, 10 min 40 C, HPLC (26-mer peptide [2]): 0.2 mg/mL
Residual immunogenicity of 26-mer peptide (%), competitive ELISA after protease treatment (26-mer peptide [2]): 99.6%
Residual 33-mer peptide (mg/mL) after 0.5 ppm protease, 10 min 40 C, HPLC (33-mer peptide [3]): 0.58 mg/mL
Residual 33-mer peptide (mg/mL) after 1 ppm protease, 10 min 40 C, HPLC (33-mer peptide [3]): 0.39 mg/mL
Residual 33-mer peptide (mg/mL) after 2 ppm protease, 10 min 40 C, HPLC (33-mer peptide [3]): 0.18 mg/mL
Residual immunogenicity of 33-mer peptide (%), competitive ELISA after protease treatment (33-mer peptide [3]): 73.7%

B1: AflPro3 (protein)
chain: LSFLPGIKANNLQLASVLGIDGHTARFNPEKIAETAISRGSGSEVPARRISIPIDHEDPSMGTYQNRYWVSADFYKPGGPVFVLDAGEGNAYSVAQSYLGGSDNFFAEYLKEFNGLGLVWEHRYYGDSLPFPVNTSTPNEHFKYLTNSQALADLPYFAEKFTLNGTDLSPKSSPWIMLGGSYPGMRAAFTRNEYPDTIFASFAMSAPVEAWVNMTIYFEQVYRGMVANGLGGCAKDLKAINDYIDSQLDKKGQAADAIKTLFLGKEGIHNSNGDFTAALGSIYNLFQSYGVDGGEESLSQLCSYLDKEASPNGIARKIGVKELTEKFAAWPPLLYLINQWGSQVGNGDSNCKGQNNSTETVCELGGQFTDPDTISWTWQYCTEWGYLQADNVGPHSLLSKYQSLEYQQSLCYRQFPGAKESGLLPEHPEANETNAETGGWTIRPSNVFWSAGEFDPWRTLTPLSNETFAPKGVQISTNIPKCGVETPENVLFGYVIPRAEHCFDYDLSYKPADKSRKLFSLALKKWLPCWRSEHAPKGVQRKWM
Residual 26-mer peptide (mg/mL) after 0.5 ppm protease, 10 min 40 C, HPLC (26-mer peptide [4]): 0.38 mg/mL
Residual 26-mer peptide (mg/mL) after 1 ppm protease, 10 min 40 C, HPLC (26-mer peptide [4]): 0.17 mg/mL
Residual 26-mer peptide (mg/mL) after 2 ppm protease, 10 min 40 C, HPLC (26-mer peptide [4]): 0.05 mg/mL
Residual 33-mer peptide (mg/mL) after 0.5 ppm protease, 10 min 40 C, HPLC (33-mer peptide [5]): 0.09 mg/mL
Residual 33-mer peptide (mg/mL) after 1 ppm protease, 10 min 40 C, HPLC (33-mer peptide [5]): 0.01 mg/mL
Residual 33-mer peptide (mg/mL) after 2 ppm protease, 10 min 40 C, HPLC (33-mer peptide [5]): 0.01 mg/mL
